Assay results from PMC4784909, “The Structural Basis of Coenzyme A Recycling in a Bacterial Organelle” (PLoS Biology, 2016).
Read-outs that look alike come from different tables or passages of the source.

Experiments:
rPduLΔEP [1] = molecular target: T1, rPduLΔEP (Rhodopseudomonas palustris, UniProt Q21A54); experiment: X-ray crystal structure, […] Å; format: binding; set-up: gene pduL; C-terminal 6xHis, codon optimized, E. coli BL21(DE3); dimer; contains 2 Zn; conditions: CoA co-purified from E. coli; sulfur coordinates Zn1 of di-zinc active site
[2] = molecular target: pPduL, full length (PduL from the pvm locus of Planctomyces limnophilus) (Planctomyces limnophilus); experiment: SEC; post-nickel affinity protein on HiLoad 26/60 Superdex 200 preparative column, pooled fractions (1-20 mg/mL) on Superdex 200 10/300 GL analytical column; 20 mM Tris pH 7.4, 50 mM NaCl
[3] = molecular target: pPduL, full length (PduL from the pvm locus of Planctomyces limnophilus) (Planctomyces limnophilus); experiment: as above; remark: listed apart in the source
rPduLΔEP [4] = molecular target: T1, rPduLΔEP; set-up: gene pduL; conditions: crystals soaked 2 d in sodium phosphate pH 7.0; bridges both Zn in active site, CoA dissociated
[5] = molecular target: the molecule itself; experiment: SEC-MALS; Superdex S200 10/300 GL, 1 mg/ml protein injected, 0.5 ml/min, 20 mM Tris, 50 mM NaCl, pH 7.4
[6] = molecular target: the molecule itself; experiment: SEC; post-nickel affinity protein on HiLoad 26/60 Superdex 200 preparative column, pooled fractions (1-20 mg/mL) on Superdex 200 10/300 GL analytical column; 20 mM Tris pH 7.4, 50 mM NaCl

Molecule: CC(C)(COP(=O)(O)OP(=O)(O)OC[C@H]1O[C@@H](n2cnc3c(N)ncnc32)[C@H](O)[C@@H]1OP(=O)(O)O)[C@@H](O)C(=O)NCCC(=O)NCCS [Coenzyme A]
- X-ray crystal structure, 1.54 Å (rPduLΔEP [1]): tetrahedral coordination state with His48, His50, Glu109, and the CoA sulfur

Molecule: pPduL, full length (PduL from the pvm locus of Planctomyces limnophilus) (enzyme)
- stoichiometry N [2]: 2
- stoichiometry N [3]: 6

Molecule: O=P(O)(O)O [phosphate]
- X-ray crystal structure, phosphate soak, 2.10 Å (rPduLΔEP [4]): the CoA dissociates, and density for a phosphate molecule is visible at the active site

B1: rPduL, full length (PduL from the grm3 locus of Rhodopseudomonas palustris BisB18) (enzyme, UniProt Q21A54 1-226, looked up)
chain: MDMQQETIERIIRQVLGQVGPAGGSIATLSGDAGVDPFQVAVGVSNRHIHLSRTDMDTLFGPGAELQRKKAMKQPGQFAAEETVTLKGPKGSLSKVRVLGPLRRETQVEVSVADGFALGITPPLRQSGQLDDTPGLTIIGPQGSVTKDHGVIVAQRHIHMHPSTAAKLGLRNGDEVDVEAGGERGGVMHRVLIRVAEASADEMHIDVEEANALCLKNDDVVRICKK
notes: PduL phosphotransacylase, grm3 locus, Rhodopseudomonas palustris BisB18, with its N-terminal encapsulation peptide; Two oligomeric states by SEC (about a dimer and a higher oligomer); six subunits by SEC-MALS; also called rPduL hexamer; wildtype construct; source: E. coli BL21(DE3), purified (HisTrap, Superdex 200)
- stoichiometry N [5]: 6
- stoichiometry N [6]: ~2

B2: rPduLΔEP (PduL from the grm3 locus of Rhodopseudomonas palustris BisB18, N-terminal putative encapsulation peptide removed) (enzyme, UniProt Q21A54 34-226, looked up)
chain: GVDPFQVAVGVSNRHIHLSRTDMDTLFGPGAELQRKKAMKQPGQFAAEETVTLKGPKGSLSKVRVLGPLRRETQVEVSVADGFALGITPPLRQSGQLDDTPGLTIIGPQGSVTKDHGVIVAQRHIHMHPSTAAKLGLRNGDEVDVEAGGERGGVMHRVLIRVAEASADEMHIDVEEANALCLKNDDVVRICKK
notes: PduL phosphotransacylase, grm3 locus, Rhodopseudomonas palustris BisB18; N-terminal putative EP (33 amino acids) removed; the crystallized construct begins with M-G-V; The construct begins with M-G-V; Gene codon optimized and synthesized with the 6xHis tag; no tag cleavage step is described; Crystals hold CoA (or phosphate) and two zinc ions per chain; also called truncated rPduL; Pdul-His; …
- stoichiometry N [6]: 2
